This is an account of results in paper PMC7784741 (Protein Science : A Publication of the Protein Society, 2020).

In the experiment the target is YAP-binding domain of human TEAD4, TEAD4 217-434 (human, UniProt Q15561 217-434, biotin (N-biotinylated Avi tag)). The experiment is described as follows: AlphaScreen or HTRF.
Chain of YAP-binding domain of human TEAD4, TEAD4 217-434 (Q15561 217-434): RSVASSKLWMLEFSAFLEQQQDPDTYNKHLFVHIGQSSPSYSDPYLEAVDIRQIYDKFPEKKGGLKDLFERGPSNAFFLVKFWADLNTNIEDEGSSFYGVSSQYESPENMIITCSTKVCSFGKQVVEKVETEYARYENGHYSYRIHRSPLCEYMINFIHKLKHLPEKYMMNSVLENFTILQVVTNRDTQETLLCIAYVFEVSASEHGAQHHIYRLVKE

As to DSETDLEALFNAVMNPKTANVPQTVPMRLRKLPDSFFKPPE [YAP 60-100 (partner of TEAD4 in the TR-FRET assay)], the binding result is given as “binds”.
